± gives the uncertainty stated by the source.
B1: Segment polarity protein dishevelled homolog DVL-3, residues 2 to 81; numbered along this chain, Q92997 (parent)
chain: GETKIIYHLDGQETPYLVKLPLPAERVTLADFKGVLQRPSYKFFFKSMDDDFGVVKEEISDDNAKLPCFNGRVVSWLVSA
B2: Nucleosome-remodeling factor subunit BPTF, residues 2862 to 2918; numbered along this chain, Q12830 (parent)
chain: TKKDTKLYCICKTPYDESKFYIGCDRCQNWYHGRCVGILQSEAELIDEYVCPQCQST

Variants of: B1
Assay: abundance fitness (aPCA) (normalised: wild type 0, dead -1); higher = more abundant; growth selection in yeast, the domain comes from the species named
Conditions: Homo sapiens

Compared with GGTKIIYHLDGQETPYLVKLPLPAERVTLADFKGVLQRPSYKFFFKSMDDDFGVVKEEISDDNAKLPCFNGRVVSWLVSA, GHTKIIYHLDGQETPYLVKLPLPAERVTLADFKGVLQRPSYKFFFKSMDDDFGVVKEEISDDNAKLPCFNGRVVSWLVSA is higher in abundance fitness: -0.62 ± 0.068 for the first, -0.164 ± 0.1 for the second.

Going from GKTKIIYHLDGQETPYLVKLPLPAERVTLADFKGVLQRPSYKFFFKSMDDDFGVVKEEISDDNAKLPCFNGRVVSWLVSA to GATKIIYHLDGQETPYLVKLPLPAERVTLADFKGVLQRPSYKFFFKSMDDDFGVVKEEISDDNAKLPCFNGRVVSWLVSA, the abundance fitness rises from -0.723 ± 0.13 to -0.511 ± 0.077.

Compared with GCTKIIYHLDGQETPYLVKLPLPAERVTLADFKGVLQRPSYKFFFKSMDDDFGVVKEEISDDNAKLPCFNGRVVSWLVSA, GDTKIIYHLDGQETPYLVKLPLPAERVTLADFKGVLQRPSYKFFFKSMDDDFGVVKEEISDDNAKLPCFNGRVVSWLVSA is lower in abundance fitness: -0.038 ± 0.08 for the first, -0.516 ± 0.11 for the second.

METKIIYHLDGQETPYLVKLPLPAERVTLADFKGVLQRPSYKFFFKSMDDDFGVVKEEISDDNAKLPCFNGRVVSWLVSA and QETKIIYHLDGQETPYLVKLPLPAERVTLADFKGVLQRPSYKFFFKSMDDDFGVVKEEISDDNAKLPCFNGRVVSWLVSA are within error of each other in abundance fitness: -0.074 ± 0.14 for the first, -0.035 ± 0.16 for the second.

KETKIIYHLDGQETPYLVKLPLPAERVTLADFKGVLQRPSYKFFFKSMDDDFGVVKEEISDDNAKLPCFNGRVVSWLVSA and PETKIIYHLDGQETPYLVKLPLPAERVTLADFKGVLQRPSYKFFFKSMDDDFGVVKEEISDDNAKLPCFNGRVVSWLVSA are within error of each other in abundance fitness: 0.191 ± 0.11 for the first, 0.022 ± 0.24 for the second.

IETKIIYHLDGQETPYLVKLPLPAERVTLADFKGVLQRPSYKFFFKSMDDDFGVVKEEISDDNAKLPCFNGRVVSWLVSA and AETKIIYHLDGQETPYLVKLPLPAERVTLADFKGVLQRPSYKFFFKSMDDDFGVVKEEISDDNAKLPCFNGRVVSWLVSA are within error of each other in abundance fitness: -0.324 ± 0.26 for the first, -0.084 ± 0.074 for the second.

LETKIIYHLDGQETPYLVKLPLPAERVTLADFKGVLQRPSYKFFFKSMDDDFGVVKEEISDDNAKLPCFNGRVVSWLVSA and DETKIIYHLDGQETPYLVKLPLPAERVTLADFKGVLQRPSYKFFFKSMDDDFGVVKEEISDDNAKLPCFNGRVVSWLVSA are within error of each other in abundance fitness: -0.132 ± 0.11 for the first, -0.205 ± 0.1 for the second.

CETKIIYHLDGQETPYLVKLPLPAERVTLADFKGVLQRPSYKFFFKSMDDDFGVVKEEISDDNAKLPCFNGRVVSWLVSA and WETKIIYHLDGQETPYLVKLPLPAERVTLADFKGVLQRPSYKFFFKSMDDDFGVVKEEISDDNAKLPCFNGRVVSWLVSA are within error of each other in abundance fitness: -0.13 ± 0.13 for the first, -0.222 ± 0.098 for the second.

RETKIIYHLDGQETPYLVKLPLPAERVTLADFKGVLQRPSYKFFFKSMDDDFGVVKEEISDDNAKLPCFNGRVVSWLVSA and TETKIIYHLDGQETPYLVKLPLPAERVTLADFKGVLQRPSYKFFFKSMDDDFGVVKEEISDDNAKLPCFNGRVVSWLVSA are within error of each other in abundance fitness: -0.179 ± 0.068 for the first, -0.198 ± 0.12 for the second.

NETKIIYHLDGQETPYLVKLPLPAERVTLADFKGVLQRPSYKFFFKSMDDDFGVVKEEISDDNAKLPCFNGRVVSWLVSA and YETKIIYHLDGQETPYLVKLPLPAERVTLADFKGVLQRPSYKFFFKSMDDDFGVVKEEISDDNAKLPCFNGRVVSWLVSA are within error of each other in abundance fitness: -0.444 ± 0.26 for the first, -0.124 ± 0.21 for the second.

FETKIIYHLDGQETPYLVKLPLPAERVTLADFKGVLQRPSYKFFFKSMDDDFGVVKEEISDDNAKLPCFNGRVVSWLVSA gave an abundance fitness of 0.109 ± 0.23.

Variants of: B2
Assay: as above
Conditions: Homo sapiens

TKKDTKLYCICKTPYDESKFYIGCDRCQNWYHGRCVGILQSEAELIDEYVCPQWQST and TKKDTKLYCICKTPYDESKFYIGCDRCQNWYHGRCVGILQSEAELIDEYVCPQTQST are within error of each other in abundance fitness: -0.802 ± 0.12 for the first, -1.01 ± 0.12 for the second.

First: TKKDTKLYCICKTPYDESKFYIGCDRCQNWYHGRCVGILQSEAELIDEYVCPQYQST
Second: TKKDTKLYCICKTPYDESKFYIGCDRCQNWYHGRCVGILQSEAELIDEYVCPQKQST
The abundance fitness of the first is lower: -0.983 ± 0.13 for the first, -0.613 ± 0.1 for the second.

Going from TKKDTKLYCICKTPYDESKFYIGCDRCQNWYHGRCVGILQSEAELIDEYVCPQSQST to TKKDTKLYCICKTPYDESKFYIGCDRCQNWYHGRCVGILQSEAELIDEYVCPQMQST, the abundance fitness rises from -0.889 ± 0.085 to -0.648 ± 0.11.

TKKDTKLYCICKTPYDESKFYIGCDRCQNWYHGRCVGILQSEAELIDEYVCPQEQST and TKKDTKLYCICKTPYDESKFYIGCDRCQNWYHGRCVGILQSEAELIDEYVCPQGQST are within error of each other in abundance fitness: -0.776 ± 0.16 for the first, -0.755 ± 0.14 for the second.

First: TKKDTKLYCICKTPYDESKFYIGCDRCQNWYHGRCVGILQSEAELIDEYVCPQHQST
Second: TKKDTKLYCICKTPYDESKFYIGCDRCQNWYHGRCVGILQSEAELIDEYVCPQRQST
The abundance fitness of the first is higher: -0.512 ± 0.13 for the first, -0.875 ± 0.1 for the second.

Compared with TKKDTKLYCICKTPYDESKFYIGCDRCQNWYHGRCVGILQSEAELIDEYVCPQVQST, TKKDTKLYCICKTPYDESKFYIGCDRCQNWYHGRCVGILQSEAELIDEYVCPQPQST is higher in abundance fitness: -0.934 ± 0.1 for the first, -0.64 ± 0.12 for the second.

TKKDTKLYCICKTPYDESKFYIGCDRCQNWYHGRCVGILQSEAELIDEYVCPQFQST and TKKDTKLYCICKTPYDESKFYIGCDRCQNWYHGRCVGILQSEAELIDEYVCPQAQST are within error of each other in abundance fitness: -1.06 ± 0.14 for the first, -0.851 ± 0.12 for the second.

TKKDTKLYCICKTPYDESKFYIGCDRCQNWYHGRCVGILQSEAELIDEYVCPQDQST and TKKDTKLYCICKTPYDESKFYIGCDRCQNWYHGRCVGILQSEAELIDEYVCPQNQST are within error of each other in abundance fitness: -0.819 ± 0.17 for the first, -0.802 ± 0.16 for the second.

First: TKKDTKLYCICKTPYDESKFYIGCDRCQNWYHGRCVGILQSEAELIDEYVCPQIQST
Second: TKKDTKLYCICKTPYDESKFYIGCDRCQNWYHGRCVGILQSEAELIDEYVCPQCQSV
The abundance fitness of the first is lower: -1.06 ± 0.15 for the first, -0.052 ± 0.14 for the second.

TKKDTKLYCICKTPYDESKFYIGCDRCQNWYHGRCVGILQSEAELIDEYVCPQCQSM and TKKDTKLYCICKTPYDESKFYIGCDRCQNWYHGRCVGILQSEAELIDEYVCPQCQSI are within error of each other in abundance fitness: -0.509 ± 0.36 for the first, -0.115 ± 0.1 for the second.

Variant TKKDTKLYCICKTPYDESKFYIGCDRCQNWYHGRCVGILQSEAELIDEYVCPQCQSL has an abundance fitness of -0.569 ± 0.28.

Reference: the Human Domainome abundance scans (Beltran et al. 2025)
